Measurements: paper PMC3218054, “Characterisation of the Interaction of the C-Terminus of the Dopamine D2 Receptor with Neuronal Calcium Sensor-1” (PLoS ONE, 2011)

Target: T1, Neuronal calcium sensor-1 (NCS-1), Rattus norvegicus, wild type (Rattus norvegicus, UniProt P62168 1-190)
T1 construct: NCS-1, Rattus norvegicus; cDNA GenBank L27421; sub-cloned into pET-M11; 15N or 15N,13C labelled for NMR; Monomeric by SEC-MALS; also called wild type NCS-1; source: E. coli BL21 (DE3), purified (Phenyl FF hydrophobic column, TEV cleavage, Superdex 75); not shown: His tag, N-terminal, cleaved
T1 sequence (P62168 whole entry): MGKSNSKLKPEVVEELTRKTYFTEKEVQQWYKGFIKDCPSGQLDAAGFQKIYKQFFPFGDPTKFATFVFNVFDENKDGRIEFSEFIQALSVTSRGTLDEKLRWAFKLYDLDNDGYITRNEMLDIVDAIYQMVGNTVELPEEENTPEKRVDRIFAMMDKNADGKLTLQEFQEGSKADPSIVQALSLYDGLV
Test: other fluorescence titration; intrinsic tryptophan fluorescence of 1 µM NCS-1 (excitation 280 nm, emission 290-410 nm), peptide added stepwise; 20 mM HEPES, 139 mM NaCl, 2 mM ATP, 5 mM EGTA, 5 mM nitrilotriacetic acid, pH 7.4, 1 µM free Ca2+; room temperature; logistic fit
Details: both partners purified

EC50: 14.3 µM
stoichiometry N: 2 peptide per NCS-1
B1: D2 peptide, residues 428-443 of the human dopamine D2 receptor (peptide)
peptide: TFNIEFRKAFLKILHC
notes: dopamine D2 receptor, human, residues 428-443, cytoplasmic C-terminal tail; Dissolved first in a minimal amount of DMSO; also called D2 (428-443); dopamine D2 receptor C-terminus; source: synthetic peptide, bought: Peptide Protein Research Ltd
